Source: US9416187B2, “CD-20 specific antibodies and methods of employing same” (Duke University, dated 2016)
Changes are numbered by the printed parent chain.

B1: HB20-3 monoclonal antibody (antibody, V domains shown)
VH: EVQLQESGAELVKPGASVKMSCKASGFTFTNYNMHWLKQTPGQGLEWIGAIYPENGDTSYNQKFKGKATLTADKASSTAYMHLSSLTSEDSAVYFCARFYYYGSYYGAMDYWGQGTSVTVSS
VL: MWGSVFNFSIVGARCDIQMTQSPASLSASVGETVTITCRASGNIHNYLAWYQQKQGKSPQLLVYNAKTLADGVPSRFSGSGSGTQFSLKINSLQPEDFGSYYCQHFWSTPWTFGGGTKLEIKR
B2: HB20-4 monoclonal antibody (antibody, V domains shown)
VH: B1 VH with L37V, K63R, A75S, S91T, M109L
VL: B1 VL with N43S, Q55L, T109I
B3: MB20-2 monoclonal antibody (antibody, V domains shown)
VH: EVQLQESGPELVKPGASVKISCKASGYMFTDYYIKWVKQSHGKSLEWIGDINPNNGDTIYNQKFKGKATLTVDKSSNTAYMDLRSLTSEDSAVYYCARERFAYWGQGTLVTVSA
VL: EIVLTQSPTTMAASPGEKITITCSVSSSIRSNYLHWYQQKPGFSPKLLIYRTSNLASGVPARFSGSGSGTSYSLTVATMEAEDVATYYCQQGSSIPLTFGAGTKLELKR
B4: MB20-7 monoclonal antibody (antibody, V domains shown)
VH: B3 VH with E10D, I34M, I59T, K65E, N77S, D82E
VL: B3 VL with I2L, M11K, K40R, V76I, A77G, I95L
B5: MB20-14 monoclonal antibody (antibody, V domains shown)
VH: B3 VH with S85I
VL: B3 VL
B6: MB20-18 monoclonal antibody (antibody, V domains shown)
VH: B3 VH with P9L, E10D, M28T, I34M, E46D, T58I, K65E, N77S, D82E
VL: SIVMTQTPKFLLVSTGDRVTITCKASQTVTNDLAWYQQKPGQSPKLLIYYASNRYTGVPDRFTGSGYGTDFTFTINTVQAEDLAVYFCQQDYSSPLTFGAGTKLELKR
B7: MB20-8 monoclonal antibody (antibody, V domains shown)
VH: B3 VH with E10D, M28T, I34M, E46D, T58I, K65E, N77S, D82E
VL: B3 VL with S28N, V76I, A77G, E80K
B8: MB20-10 monoclonal antibody (antibody, V domains shown)
VH: B3 VH with E10D, M28T, I34M, E46D, T58I, K65E, N77S, D82E
VL: B3 VL with S28N, V76I, A77G, E80K
B9: HB20-25 monoclonal antibody (antibody, V domains shown)
VH: EVQLQESGAELVKPGASVKMSCKASGFRFTNYNLHWVKQTPGQGLEWIGAIYPGNGETSYNQKFKGKATLTADKSSSTAYMQLRSLTSGDSAVYYCARFYYYGSSYGAMDYWGQGTSVTVSS
VL: MWGSVFNFSIVDARCDIQMTQSPASLSVSVGETVTITCRASENIYSNLAWYQQKQGKSPQLLVYAATNLADGVPSRFSGSGSGTQYSLKINSLQSEDFGSYYCQHFWGIPWTFGGGTKLEIKR
B10: MB20-1 monoclonal antibody (antibody, V domains shown)
VH: EVQLQESGGGLVQPGGSLKLSCAASGFTFSDYGMAWVRQAPRKGPEWVAFISNLAYSIYYADTVTGRFTISRENAKNTLYLEMSSLRSEDTAMYFCTRTGYYALDYWGQGTSVTVSS
VL: NIMMTQSPSSLAVSAGEKVTMRCKSSQSVLYSSKRKNYLAWYQQKPGKSPTLLIYWASTRESGVPDRFTGSGSGTDFTLTITSVQAEDLAVYYCHQYLSSFTFGGGTKLEIKR
B11: MB20-13 monoclonal antibody (antibody, V domains shown)
VH: B10 VH
VL: B3 VL with T5A, M11T, V25A, R30T, V76I, A77G, I95K, P96T

How the values were obtained:
human CD20 [1] = biological target: T1, human CD20 (human, UniProt P11836); assay: flow cytometry, Raji cells, saturating antibody
T1 sequence: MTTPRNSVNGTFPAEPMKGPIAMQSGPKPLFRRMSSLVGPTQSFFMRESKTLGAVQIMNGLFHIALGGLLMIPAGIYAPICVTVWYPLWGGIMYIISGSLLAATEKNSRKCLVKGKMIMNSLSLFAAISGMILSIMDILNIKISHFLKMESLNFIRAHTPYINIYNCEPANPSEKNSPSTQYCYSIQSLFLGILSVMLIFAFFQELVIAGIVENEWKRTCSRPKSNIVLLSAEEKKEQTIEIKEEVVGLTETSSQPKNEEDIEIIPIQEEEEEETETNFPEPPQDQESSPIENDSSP

human CD20 [2] = biological target: T1, human CD20; assay: flow cytometry, human blood B cells, saturating antibody
human CD20 [3] = biological target: T1, human CD20; assay: flow cytometry, BJAB cells, saturating antibody
human CD20 [4] = biological target: T1, human CD20; assay: flow cytometry, DHL-4 cells, saturating antibody
mouse CD20 [5] = biological target: T2, mouse CD20 (mouse, UniProt P19437); assay: flow cytometry, spleen CD19+ B cells, control staining
T2 sequence: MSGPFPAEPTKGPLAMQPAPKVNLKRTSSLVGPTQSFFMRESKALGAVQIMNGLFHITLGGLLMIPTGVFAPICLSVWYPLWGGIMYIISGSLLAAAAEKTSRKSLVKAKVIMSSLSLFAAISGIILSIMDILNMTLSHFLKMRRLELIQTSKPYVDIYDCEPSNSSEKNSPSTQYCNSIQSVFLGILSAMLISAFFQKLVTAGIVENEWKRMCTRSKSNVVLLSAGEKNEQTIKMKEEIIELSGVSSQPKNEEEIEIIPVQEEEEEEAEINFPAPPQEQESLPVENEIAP

mouse CD20 [6] = biological target: T2, mouse CD20; assay: flow cytometry, spleen CD19+ B cells, 0.5 µg/mL antibody

| Molecule | mean linear fluorescence intensity (human CD20 [1]) | mean linear fluorescence intensity (human CD20 [2]) | mean linear fluorescence intensity (human CD20 [3]) | mean linear fluorescence intensity (human CD20 [4]) | mean linear fluorescence intensity (mouse CD20 [5]) | B cell reactivity (mean linear fluorescence intensity) (mouse CD20 [6]) |
| --- | --- | --- | --- | --- | --- | --- |
| 1F5 anti-CD20 monoclonal antibody | 455 | 104 | 386 | 169 |  |  |
| B9E9 anti-CD20 monoclonal antibody | 438 | 112 | 377 | 162 |  |  |
| isotype-matched control monoclonal antibodies |  |  |  |  | < 6 |  |
| B1 anti-CD20 monoclonal antibody | 944 | 277 | 700 | 486 |  |  |
| B1 | 2220 | 469 | 1200 | 765 |  |  |
| B2 | 1580 | 397 | 1100 | 578 |  |  |
| B3 |  |  |  |  |  | 209 |
| B4 |  |  |  |  |  | 525 |
| B5 |  |  |  |  |  | 166 |
| B6 |  |  |  |  |  | 729 |
| B7 |  |  |  |  |  | 240 |
| B8 |  |  |  |  |  | 317 |
| B9 | 1350 | 227 | 849 | 514 |  |  |
| B10 |  |  |  |  |  | 69 |
| B11 |  |  |  |  |  | 603 |
